From patent US11090383 (CENTRE FOR DRUG RESEARCH AND DEVELOPMENT, dated 2021)

T1: human podocalyxin as displayed on tumor cells (A172, SKOV3, MIA PaCa-2, MDA-MB-231, OVCAR10) (human, UniProt O00592 23-558, post-translational glycan recognised by Podo447 (O-linked, with beta-GalNAc that may be terminal; site not stated))
T1 construct: Endogenous podocalyxin of tumor cell lines, on cells, in lysates or in cryosections; also called tumor-associated Podocalyxin
T1 chain: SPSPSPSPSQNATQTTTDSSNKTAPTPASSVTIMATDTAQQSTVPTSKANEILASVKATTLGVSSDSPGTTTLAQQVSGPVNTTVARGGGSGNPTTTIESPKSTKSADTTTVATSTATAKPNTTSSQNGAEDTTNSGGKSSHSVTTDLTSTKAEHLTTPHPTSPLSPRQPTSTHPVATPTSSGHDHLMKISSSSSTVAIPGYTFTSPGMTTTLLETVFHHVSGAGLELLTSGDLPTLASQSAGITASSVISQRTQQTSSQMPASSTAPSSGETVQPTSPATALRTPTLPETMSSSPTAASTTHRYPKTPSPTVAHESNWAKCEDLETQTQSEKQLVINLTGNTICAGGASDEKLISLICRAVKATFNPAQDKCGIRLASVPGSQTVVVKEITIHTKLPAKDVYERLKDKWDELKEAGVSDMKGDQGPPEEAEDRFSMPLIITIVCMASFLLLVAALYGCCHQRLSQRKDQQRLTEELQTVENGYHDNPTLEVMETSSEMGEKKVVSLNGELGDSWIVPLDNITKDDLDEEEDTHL


Columns and labels:
[1] = biological target: WT Podocalyxin (on normal cells and tissues) (human) (UniProt O00592); assay: flow cytometry, live 293 cells
[2] = biological target: WT Podocalyxin (on normal cells and tissues) (human) (UniProt O00592); assay: flow cytometry, live HUVEC cells
cPodo/CHO = assay: flow cytometry, live cPodo/CHO cells; Mock/CHO with this antibody: 2%
[3] = biological target: T1, human podocalyxin as displayed on tumor …; assay: flow cytometry, titrated antibody on A172 cells, four-parameter fit
Procedure: (§1) Briefly, A172 cells were detached using cell dissociation solution (Sigma-C5914) and incubated with titrated purified antibodies in 96-well V-bottom plates. Antibody binding was detected using a goat anti-human IgG-Fc-Alexa 647 secondary antibody (Jackson 109-605-098) and the cells were analyzed on the Intellicyt high throughput flow cytometer (HTFC).
Table immediately above: Statistical data using Graphpad Prism analysis software representing the data presented above. Values were calculated using a variable slope (four parameters) non-linear regression analysis.

[4] = biological target: T1, human podocalyxin as displayed on tumor …; assay: flow cytometry, MIA PaCa-2 PODXL siRNA
Procedure: (§2) Cells were cultured under continuous antibiotic selection with puromycin (4 µg/ml; Invitrogen, Burlington, ON) and G418 (lmg/ml; Calbiochem, Darmstadt, Germany). shRNA constructs were generously provided by Dr. John Wilkins (University of Manitoba, Winnipeg, MB) and the infections were performed by Michelle Turvey and Dr. Shaun McColl (University of Adelaide, Australia). 2.5×10^5 MIA PaCa-2 cells were seeded per well in a 6-well TC-Treated plate (Costar, cat#3516). After incubation overnight, cells were transfected with 10 nM siRNA following the guidelines of the Oligofectamine protocol (cat#12252-011, Invitrogen, Burlington, ON). Pre-Design and validated siRNA (PODXL siRNA, cat# s10770; Negative control No. 1 siRNA, cat#4390843) were obtained from Ambion (Thermo Fisher Scientific, Burlington, ON). Knock-downs were assessed by flow cytometry two days after transfection.
(§3) Sub-confluent cell lines were washed once with Ca^2+ and Mg^2+ free HBSS (Invitrogen, Carlsbad, Calif.) harvested with 0.25% Trypsin/EDTA (Invitrogen, Carlsbad, Calif.). Cells were quenched with normal growth media and centrifuged at 300×g for 5 minutes. Cells were washed once with FACS buffer (2% FBS, 2 mM EDTA, PBS, 0.05% NaAzide). Cells were blocked for 20 minutes at 4° C. in Blocking Buffer (2% rat serum, 2 µg/ml dilution of 2.4G2 (anti-CD16/CD32)) in a 96 well 'v' bottom plate. […]

[5] = biological target: T1, human podocalyxin as displayed on tumor …; assay: KinExA kinetic exclusion assay, antigen: MDA-MB-231 Cells
[6] = biological target: WT Podocalyxin (on normal cells and tissues) (human) (UniProt O00592); assay: IHC, Normal Cerebellum; Weak and Strong columns hold '-'
[7] = biological target: T1, human podocalyxin as displayed on tumor …; assay: flow cytometry titration on A172 cells, goat anti-human IgG-Fc-Alexa 647
Procedure: as §1

[8] = biological target: T1, human podocalyxin as displayed on tumor …; assay: KinExA, titrated A172 cells with constant antibody, free antibody measured
Procedure: Example 13—Determination of Affinity of PODO447 and PODO83 for Cellular PODXL Antigens by Kinetic Exclusion Assay The concentration dependence of free anti-podo antibody as a function of A172 cell number was determined using a Sapidyne KinExA 3200. […] A172 cells and cell bound antibodies were then isolated by centrifugation. Supernatant containing free, unbound antibody was then transferred to a new tube. In the KinExA, a new column of PMMA beads coated with a Gt anti-IgG-Fc capture antibody is packed for each sample assayed. The supernatant containing free unbound antibody is passed over the column. The amount of free antibody captured on the PMMA beads was then measured using a Gt anti-IgG-Fc-A647. The concentration of free antibody over the entire 12 step dilution series was then used to determine the antibody Kd's using the standard Kd template in the KineExA Pro Software.
Table immediately above: Kinetic exclusion assay (KinExA) affinity determination of humanized and rabbit/human chimeric antibodies to Podocalyxin endogenously expressed on A172 cells. A172 cells were titrated and incubated with constant antibody concentrations and allowed to reach equilibrium with a 16 hour incubation. Free, unbound antibody in the supernatant was then captured on the KinExA 3200 using poly(methyl methacrylate) (PMMA) beads coated with goat anti-human IgG-Fc capture antibodies and detected with goat anti-human IgG-Fc-alexa 647 label.

[9] = biological target: T1, human podocalyxin as displayed on tumor …; assay: flow cytometry, MDA.MB.231 Podo KD
Procedure: as §2, §3

[10] = biological target: WT Podocalyxin (on normal cells and tissues) (human) (UniProt O00592); assay: IHC, Normal Kidney

Row | Live cell GeoMean FL [1] | Live cell GeoMean FL [2] | % Shifting (FL4) Live Cells (cPodo/CHO) [%] | LogIC50 [3] | decrease of binding on podocalyxin knockdown (fold) [4] [X] | Kd [5] [nM] | Kd High [5] [nM] | Kd Low [5] [nM] | IHC score Negative, cases of total [6] | EC50 (read off the curve) [7] [µg/mL] | Kd [8] [nM] | Kd High [8] [nM] | Kd Low [8] [nM] | decrease of binding on podocalyxin knockdown (fold) [9] [X] | IHC score Negative, cases of total [10] [%] | IHC score Weak, cases of total [10] [%] | Molecule
1 | 556 | 484 | 1 |  |  |  |  |  |  |  |  |  |  |  |  |  | MsIgG2a (antibody)
2 | 6710 | 3970 |  | 2.28 | 10 | 0.189 | 52.4 | 0.0425 | 0 of 10 cases | ~0.2 | 0.00757 | 0.0249 | 0.0023 | 2.5 | 98 | 1.9 | Podo447 antibody, recombinant rabbit/human IgG1 chimera (antibody, V domains shown, also called anti-Podo) VH: QSLEESGGRLVTPGTPLTLTCTASGFSLSGYQMNWVRQAPGKGLEWIGYIWSDGGTDYASWAKGRFTISKTSSTTVDLKMTSLTTEDTATYFCAREGYWLGAFDPWGPGTLVTVSS VL: AAVLTQTPSPVSAAVGATVSVSCQSSQSVHHKNDLAWFQQKPGQPPKLLIYYTSTLASGVPSRFKGSGSGTQFTLTISDLECDDAATYYCAGVYEGSSDNRAFGGGTEVVVKR

The remaining lines, values behind:

Row | Molecule | Live cell GeoMean FL [1] | Live cell GeoMean FL [2] | % Shifting (FL4) Live Cells (cPodo/CHO) [%] | LogIC50 [3] | decrease of binding on podocalyxin knockdown (fold) [4] [X] | Kd [5] [nM] | Kd High [5] [nM] | Kd Low [5] [nM] | IHC score Negative, cases of total [6] | EC50 (read off the curve) [7] [µg/mL] | Kd [8] [nM] | Kd High [8] [nM] | Kd Low [8] [nM] | decrease of binding on podocalyxin knockdown (fold) [9] [X] | IHC score Negative, cases of total [10] [%] | IHC score Weak, cases of total [10] [%]
3 | Control Rb/HuIgG1 (antibody) | 446 | 489 |  |  |  |  |  |  |  |  |  |  |  |  |  | 
4 | Humanized Podo447 (humanized_podo447VH_hIgG1C with humanized_podo447VL6_hIgkC) (antibody, V domains shown, The labels R0943_A046 and CDRD-0103-001 are tied to this molecule only by the word 'Humanized'; also called R0943_A046 (Humanized); CDRD-0103-001 (Humanized)) VH: EVQLVESGGGLVQPGRSLRLSCTASGFSLSGYQMNWVRQAPGKGLEWVGYIWSDGGTDYTASVKGRFTISRDGSKSIAYLQMNSLKTEDTAVYYCAREGYWLGAFDPWGQGTSVTVSA VL: AAQLTQSPSPLSASVGDRVTITCQSSQSVHHKNDLAWYQQKPGKAPKLLIYYTSTLASGVPSRFSGSGSGTDFTLTISSLQPEDFATYYCAGVYEGSSDNRAFGGGTKVEIKR |  |  |  | 2.09 |  |  |  |  |  | ~0.1 | 0.0144 | 0.0459 | 0.00459 |  |  | 
